For orientation: Kd means a measure of binding affinity in units of concentration. Lower therefore signals higher affinity.

The target of the assay is surface-immobilized biotinylated microtubules (pig, UniProt Q2XVP4 1-451; Q767L7 1-444, biotin (site not stated) | biotin (site not stated)).
Sequence of surface-immobilized biotinylated microtubules (Q2XVP4 whole entry, chain 1 of 2): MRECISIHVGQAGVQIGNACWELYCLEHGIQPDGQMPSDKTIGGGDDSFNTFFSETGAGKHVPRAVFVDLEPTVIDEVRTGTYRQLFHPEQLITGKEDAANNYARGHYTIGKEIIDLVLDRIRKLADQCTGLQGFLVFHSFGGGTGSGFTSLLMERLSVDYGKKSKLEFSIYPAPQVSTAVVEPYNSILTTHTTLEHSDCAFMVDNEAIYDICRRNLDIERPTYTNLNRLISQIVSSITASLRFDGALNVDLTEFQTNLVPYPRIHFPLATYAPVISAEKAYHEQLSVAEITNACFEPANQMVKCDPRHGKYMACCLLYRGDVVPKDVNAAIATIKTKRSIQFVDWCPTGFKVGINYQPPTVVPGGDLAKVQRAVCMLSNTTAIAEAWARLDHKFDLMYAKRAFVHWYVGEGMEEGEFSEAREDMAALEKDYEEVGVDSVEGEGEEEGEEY
Sequence of surface-immobilized biotinylated microtubules (Q767L7 other isoform, or with tags, fused parts or gaps, chain 2 of 2): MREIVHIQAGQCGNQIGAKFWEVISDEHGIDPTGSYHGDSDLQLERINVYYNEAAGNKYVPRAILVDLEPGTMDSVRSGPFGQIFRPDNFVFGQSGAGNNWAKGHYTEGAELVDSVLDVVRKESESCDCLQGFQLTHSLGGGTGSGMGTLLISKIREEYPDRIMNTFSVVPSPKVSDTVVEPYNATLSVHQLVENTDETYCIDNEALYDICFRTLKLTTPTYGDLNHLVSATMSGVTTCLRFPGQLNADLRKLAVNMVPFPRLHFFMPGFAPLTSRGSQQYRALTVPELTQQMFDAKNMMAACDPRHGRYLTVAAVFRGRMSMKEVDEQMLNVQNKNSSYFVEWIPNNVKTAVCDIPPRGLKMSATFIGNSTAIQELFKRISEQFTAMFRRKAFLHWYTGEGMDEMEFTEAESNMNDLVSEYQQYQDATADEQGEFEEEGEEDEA

B1: MAP9-MTBD (Human MAP9 (302–647)::GFP::strepII) (domain or fragment)
chain: SKESQVTADDLEEEKAKAELIMDDDRTVDPLLSKSQSILISTSATASSKKTIEDRNIKNKKSTNNRASSASARLMTSEFLKKSSSKRRTPSTTTSSHYLGTLKVLDQKPSQKQSIEPDRADNIRAAVYQEWLEKKNVYLHEMHRIKRIESENLRIQNEQKKAAKREEALASFEAWKAMKEKEAKKIAAKKRLEEKNKKKTEEENAARKGEALQAFEKWKEKKMEYLKEKNRKEREYERAKKQKEEETVAEKKKDNLTAVEKWNEKKEAFFKQKEKEKINEKRKEELKRAEKKDKDKQAINEYEKWLENKEKQERIERKQKKRHSFLESEALPPWSPPSRTVFAKVF
For the molecule B1, the Kd is 43 nM.

The values above are taken from article doi:10.1101/2025.11.17.688911 (2025).
